This assay has as its target T1, mouse CD80-Fc fusion protein (mouse, UniProt Q00609 38-246).
T1 sequence: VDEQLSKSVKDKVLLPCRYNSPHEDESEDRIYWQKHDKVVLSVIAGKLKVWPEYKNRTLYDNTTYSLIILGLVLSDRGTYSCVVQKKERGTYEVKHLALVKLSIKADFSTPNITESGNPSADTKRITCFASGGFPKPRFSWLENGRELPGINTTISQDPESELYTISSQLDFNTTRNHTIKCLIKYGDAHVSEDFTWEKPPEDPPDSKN
Nature of the assay: SPR.

Among the data in paper PMC11805834 (Applied Microbiology and Biotechnology, 2025) are Kd values, retold here.

B1: Mouse CD28 protein with His tag (receptor)
chain: NKILVKQSPLLVVDSNEVSLSCRYSYNLLAKEFRASLYKGVNSDVEVCVGNGNFTYQPQFRSNAEFNCDGDFDNETVTFRLWNLHVNHTDIYFCKIEFMYPPPYLDNERSNGTIIHIKEKHLCHTQSSPKL
For B1, binding was characterised by a dissociation constant (Kd) of 2490 nM.

Broadly, the Kd is the equilibrium constant for the complex coming apart. The low end stands for a tighter complex, the high end for a looser complex.
